{"source": "patent US20130243764A1", "about": "(published 2013)", "key": {"[1]": {"molecular_target": "TNF alpha (species not given)", "test": "cell-based or functional assay"}, "[2]": {"molecular_target": "TNF alpha (species not given)", "test": "cell-based or functional assay", "remark": "listed apart in the source"}}, "data": [{"binder": "BPC1500 (antibody, V domains shown) VH: EVQLVESGGGLVQPGRSLRLSCAASGFTFDDHALHWVRQAPGKGLEWVSAITWNSGHIDYADSVEGRFTISRDNAKNSLYLQMNSLRAEDTAVYYCAKVRYLSTASSLDYWGQGTLVTVSS VL: not shown", "values": [{"measurement": "IC50 value, L929 neutralisation assay (cell viability)", "setting": "[1]", "value": 0.13, "unit": "µg/mL"}, {"measurement": "IC50 value, TNFα-induced IL-6 release assay (whole blood)", "setting": "[2]", "value": 0.11, "unit": "nM"}]}]}
